Measured values as given in patent publication US8822171.

System: recombinant human tau, largest isoform (2N4R)

Substance | New sites identified in recombinant tau (phosphorylated residues, numbered on 441-residue human tau) | in vitro phosphorylation of recombinant tau, sites identified by LC/MS/MS
casein kinase 2 (CK2) | (52/56), 199, 386, 400, (412/413/414/416, 1 site) | CK2 found 5 new sites making a total of 8 in all.
glycogen synthase kinase 3β (GSK-3β) | 149, 220, 237, 241, 245, 258, 285, 289, 305, 352, 373, (409/412/413/414/416, 2 sites of which 1 or 2 are new) | GSK-3 found 12 new sites making a total of 38 in all.
cyclic AMP-dependent protein kinase (PKA) | 210, (217/220), 258, 352, (412/413) | PKA found 5 new sites making a total of 24 in all.
